What was measured:
[1] = molecular target: Hcp1 N93W/S158W double mutant (Hcp1WW) (enteroaggregative E. coli 17-2); experiment: SEC-MALS; MALLS-SEC-UV of Hcp1WW, data not shown; monomers in the hexamer
[2] = molecular target: Hcp2 of enteroaggregative E. coli (second T6SS gene cluster), wild type (enteroaggregative E. coli 17-2); experiment: SEC-MALS; SEC/MALS/UV/RI on KW803 and KW804 columns (Shodex), Tris-HCl 20 mM pH 7.5, NaCl 100 mM, 0.5 ml/min; monomers in the hexamer
[3] = molecular target: Hcp1 (hemolysin co-regulated protein 1) of the Sci-1 T6SS of enteroaggregative E. coli, wild type (enteroaggregative E. coli 17-2); experiment: SPR; BIAcore T200, 25°C; Hcp1 immobilised by amine coupling (CM5 chip in the results, HC200m Xantech chip in the methods), Hcp1 3.75-120 µM as analyte in HBS-EP; steady state, 1:1 equilibrium model; hexamer with hexamer; Hcp1WW tested in the same conditions
[4] = molecular target: Hcp1 (hemolysin co-regulated protein 1) of the Sci-1 T6SS of enteroaggregative E. coli, wild type (enteroaggregative E. coli 17-2); experiment: SEC-MALS; SEC/MALS/UV/RI on KW803 and KW804 columns (Shodex), Tris-HCl 20 mM pH 7.5, NaCl 100 mM, 0.5 ml/min; monomers in the hexamer

Which stoichiometry N [1] does the source give for “Hcp1 N93W/S158W double mutant (Hcp1WW) (natural protein)” here?
The stoichiometry N was 6.

With “Hcp2 of enteroaggregative E. coli (second T6SS gene cluster), wild type (natural protein)” as the substance, how does the stoichiometry N [2] read?
Its stoichiometry N is 6.

Which Kd [3] does the source give for “Hcp1 (hemolysin co-regulated protein 1) of the Sci-1 T6SS of enteroaggregative E. coli, wild type (natural protein)” here?
Its Kd is 7.2 µM.

What about the stoichiometry N [4] of the same substance?
Its stoichiometry N is 6.

— article PMC3925092
